Values quoted from earlier work in paper PMC7427315.

Target: MAG ECD (Mus musculus) (UniProt P20917)

In the case of MAG ECD (from UniProt P20917), the Kd is given as 380 µM.
